Test system: THP-1 cells
Assay: Cytotoxicity assay (CCK-8)
Assay type: cell-based
Details: CCK-8, 0–50 μM, 12 h, 37 °C
Procedure: Cytotoxicity assay (CCK-8)
The cytotoxicity of FPy1 and YPy1 to THP-1 was evaluated by cell counting kit-8 (CCK-8). Briefly, the THP-1 cells were seeded in 96-well plates (5000 cells/well) and cultured at 37 °C for 24 hours. Various concentrations of FPy1 or YPy1 (0, 2.5, 5, 10, 20, 30, 40, 50 μM) in RPMI 1640 medium were added, and the cells were kept incubation for 12 hours. Then, the cells were washed with PBS and incubated in the 100 μL fresh medium with 10 μL CCK8 dye for an additional 2 hours. The absorbance was measured at 450 nm using a Tecan Infinite M1000 Multi-function microplate reader, and cell viability was calculated using the formula:
Cell viability (%) = [(OD test-ODblank)/(ODcontrol-ODblank)] ×100%
Intracellular imaging with FPy1 in THP-1 cells
THP-1 cells were seeded in dishes and cultured overnight. […] The fluorescence imaging was performed under the excitation at 514 nm with signal collection in the range […]
for 4 hours, the cells were further treated with Nig (10 μM) for 2 hours. […] The distribution of FPy1 was analyzed by collecting organelle-specific dye fluorescence at 495-525 nm with 488 nm excitation, while simultaneously detecting FPy1 fluorescence at 530-610 nm with 514 nm excitation. […]
Nucleus pulposus cells were isolated from discs and resuspended in 1mL DMEM/F12 medium containing 10 μM ITS-A. A total of […] were counted and transferred into centrifuge tubes. […]

–FLTDG– [FPy1, RhoB donor, hNR quencher]
cytotoxicity towards THP-1 cells: low cytotoxicity

–YVADG– [YPy1, caspase-1-responsive FRET probe with recognition peptide –YVADG–; RhoB donor, hNR quencher]
cytotoxicity towards THP-1 cells: low cytotoxicity

Reference: PMC12598616, “Design and optimization of caspase-1-responsive fluorescent probes for pyroptosis imaging and anti-pyroptosis drug screening” (Chemical Science, 2025)
